Assay results reported in article PMC12167710 (Nature Biotechnology, 2024).

B1: hRBD15 (antibody, V domains shown)
VH: QVQLVQSGAEVKKPGASVKVSCKASGYTFTSQYMHWVRQAPGQGLEWMGIINPSGGSTSYAQKFQGRVTMTSDTSTSTVYMELSSLRSEDTAVYYCARDIYFVPARGGFDPWGQGTLVTVSS
VL: EIVLTQSPGTLSLSPGERATLSCRASQSIISSYLAWYQQKPGQAPRLLIYGASSRATGIPDRFSGSGSGTDFTLTISRLEPEDFAVYYCQQSGSAPRYTFGQGTKLEIK
B2: hRBD12 (antibody, V domains shown)
VH: EVQLVESGGGLVQPGGSLRLSCAASGLTVSSNYMSWVRQAPGKGLEWVSVIYSGGSTYYADSVKGRFTISRDNSKNTLYLLMNSLRAEDTAVYYCARDLQQLGGMDVWGQGTTVTVSS
VL: not shown
B3: hRBD13 (antibody, V domains shown)
VH: QVQLVESGGGVVQPGRSLRLSCAVSGFTFRNYGMDWVRQAPGKGLEWVAVISYDGSNKYYADSVKGRFTISRDNSKNTLFLHLNSLRAEDTAVYYCAKAGGGPYCGGGNCYMHYFDYWGQGTQVTVSS
VL: DIQMTQSPSSLSASVGDRVTITCQASQDINNYLNWYQQKPGKAPKLLIYDASNLETGVPLRFSGSGSATHFSFTISSLQPEDIATYYCQQYDHLPCTFGQGTKLEIR
B4: hRBD9 (antibody, V domains shown)
VH: EVQLVESGGGLIQPGGSLRLSCAASGLTVSSNYMNWVRQAPGKGLEWVSVLYSGGSTYYADSVKGRFTISRDNSKNTLYLQMNSLRAEDTAVYYCARDLVAYGMDVWGQGTTVTVSS
VL: DIQLTQSPSFLSASVGDRVTITCRASQGISSDLAWYQQKPGKAPKLLIYAASTLQSGVPSRFSGSGSGTEFTLTISSLQPEDFATYYCQQLNSYPTFGQGTRLEIK

Legend:
[1] = target: T1, receptor-binding domain (RBD) of the wild-type SARS-CoV-2 spike protein (SARS-CoV-2, UniProt P0DTC2 333-527); assay: cell-based or functional assay
[2] = target: T1, receptor-binding domain (RBD) of the …; assay: BLI; settings: both partners purified

Binder	other [1]	Kd [2]
B1	64400 ng/mL	0.0382 nM
B2	20.8 ng/mL	0.219 nM
B3	48600 ng/mL	< 0.001 nM
B4	20.2 ng/mL	0.126 nM
